Earlier results, collected in publication PMC4376447.

Target: S100A10 (Homo sapiens) (UniProt P60903)
Experiment: ITC

Sequence of UniProt P60903 (P60903 whole entry): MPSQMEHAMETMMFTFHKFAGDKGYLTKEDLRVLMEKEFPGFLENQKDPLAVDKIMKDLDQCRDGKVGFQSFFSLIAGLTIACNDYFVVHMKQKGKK

Kd: 500 nM
Substance: Annexin A2 N-terminus (from UniProt P07355)
